Source: a protein production outcome set (Wang et al. 2014)

Test: label from the status in PepcDB records

Row | Sequence | protein production
1 | MAEKALATLKELAFLEDPSPVERDAAIQRFEYTFEAFWKALQAYLREKEGLEGASPKGVIRLAREVGLLRDEEARLALGMVDDRSLTVHTYNEPLARAIFRRLPDYARLMEQVLGRLRR | not failed
2 | GLTTLIEMIETLSATRTINEVADVVRGAARRILDADGVAFVMRDKDLCWYVDEDAIGPLWKGKRFPMDQCVAGRVMKSGRVVVCPDIYADPDMPHDAYRPTFVKSLAIAPVRPRDPIAAIAVYWARPYDPPPEVLRKLQVVARATASALESGRLNDYLAASLEHGHFLLRELD | failed
3 | EHAKQASSYIPLDRLSISYCRSSGPGGQNVNKVNSKAEVRFHLASADWIEEPVRQKIALTHKNKINKAGELVLTSESSRYQFRNLAECLQKIRDMIAEA | not failed
4 | MNRVDLSIFIPDSLTAETGDLKIKTYKVVLIARAASIFGVKRIVIYHDDADGEARFIRDILTYMDTPQYLRRKVFPIMRELKHVGILPPLRTPHHPTGKPVTGEYRQGLTVKRVKKGTLVDIGADKLALCREKLTVNRIMSFRVVRLGKEILIEPDEPEDRYWGYEVLDTRRNLAESLKTVGADVVVATSRNASPITSILDEVKTRMRGAREAAILFGGPYKGLPEIDADIWVNTLPGQCTETVRTEEAVLATLSVFNMLTQIDEKDE | not failed
5 | MNPALVALGLTLFAGMATGIGSAIAFFARRTNFRFLSVATGFSAGVMVYVSFVEILPKGLDSLVRSCGESWGHWLNAASFFGGMLCIGLIDAVIPAAKNPHEIHADHEIAPLHDRSAPLPDFGSLAADPRCAPTGTHDHRPPQRHLLRMGLFTALAITIHNFPEGMATFLAALESPRVGAAIAVAIALHNIPEGVSVSVPIFYATGNRRKAFALSLLSGMAEPVGAAIGYLALLLFSGGASGAIPDQVTGALFGGVAGIMVYISLDELLPASRAYGKGHDSLLGLVGGMAVMALSLLLMK | failed
6 | MPKKLGPKSQRQRGAVAPLTQVQQAACSPTYKQAKRNARSYQGRRRRRRCSQNTTSRVPSQLQAVDSSSASCRTYKNSEELRSRIVSGIITPIHEQWEKANVSSPHREFPPATAREVDPLRIPPHHPHTSRQPPWCDPLGPFVVGGEDLDPFGPRRGGMIVDPLRSGFPRALIDPSSGLPNRLPPGAVPPGARFDPFGPIGTSPPGPNPDHLPPPGYDDMYL | failed
7 | MAAPEAEVLSSAAVPDLEWYEKSEETHASQIELLETSSTQEPLNASEAFCPRDCMVPVVFPGPVSQEGCCQFTCELLKHIMYQRQQLPLPYEQLKHFYRKPSPQAEEMLKKKPRATTEVSSRKCQQALAELESVLSHLEDFFARTLVPRVLILLGGNALSPKEFYELDLSLLAPYSVDQSLSTAACLRRLFRAIFMADAFSELQAPPLMGTVVMAQGHRNCGEDWFRPKLNYRVPSRGHKLTVTLSCGRPSIRTTAWEDYIWFQAPVTFKGFRE | not failed
8 | MAPHPEAAALLARSHRLGADPRNTNYAGGNASAKGTATDPVTGGDVELMWVKGSGGDLGTLTEAGLAVLRLDRLHALKGVYPGVEREDEMVAAFDYCLHGKGGAAPSIDTAMHGLVDAAHVDHLHPDSGIALACAADGEKLTAECFGDSVAWVPWRRPGFQLGLDIAAVKEANPQTIGCVLGGHGITAWGATAEECERNSLHIIRTAEAFLAERGKAEPFGPLEHHHHHH | failed
9 | MWGYVHLISWVAIVVLTVTALLIYSKSVKGFTMLQMINRVFYILVILSGIMMVQYSVKESWILAIFKILMGIIVIGVVEMLLSYRKQQKPTGMFLMIFIIVVVITVSLGFYLSGGYPLFN | failed
10 | MYIRGVGDIIYFLQQLHPLEQALLAGIFTWGMTALGAASVFFTREVSRKVLDSMLGFTAGVMIAASYWSLLAPAIEMSEGRSIPAWLPAVLGFLLGGLFLRGIDKILPHLQFGSATEAAEGLKTSWRRNTLLVLAVTLHNIPEGLAVGVAFGAAASGYMYSLPAAIALTTGIGIQNFPEGLVVSVPLRREGMSCFKSFNYGQASAIVEPIASVIGVAAVMLVRPILPYALAFAAGAMIFVVVEEIIPESQHGGNAPLATIGTMIGFSVMMVLDVAFG | failed
11 | MTFCYVNAYQGGYILYNKGTKSKEVAKMSTKKVYSFLSQAFIFSAIMLISNIIATHLPIPMPSSVIGLVILFSLLCLKVIKLEQVESLGTALTGIIGFLFVPSGISVINSLGVMGQYFVQILTVIVVATVILLAVTGLFAQFILGKDEKETEDTKELKVVNKGRKHGKVA | failed
12 | MEYLGPVLWSPAGKPPTWWDSLPTDRPIVYATLGTSGGRNLLQLVLNALAELPVTVIAATAGRSDLKTVPANAFVADYLPGEAAAARSAVVVCNGGSLTTQQALVAGVPVIGVAGNLDQHLNMEAVERAGAGVLLRTERLKSQRVAGAVMQVISRSEYRQAAARLADAFGRLEHHHHHH | failed
13 | MAAADAEAVPARGEPQQDCCVKTELLGEETPMAADEGSAEKQAGEAHMAADGETNGSCENSDASSHANAAKHTQDSARVNPQDGTNTLTRIAENGVSERDSEAAKQNHVTADDFVQTSVIGSNGYILNKPALQAQPLRTTSTLASSLPGHAAKTLPGGAGKGRTPSAFPQTPAAPPATLGEGSADTEDRKLPAPGADVKVHRARKTMPKSVVGLHAASKDPREVREARDHKEPKEEINKNISDFGRQQLLPPFPSLHQSLPQNQCYMATTKSQTACLPFVLAAAVSRKKKRRMGTYSLVPKKKTKVLKQRTVIEMFKSITHSTVGSKGEKDLGASSLHVNGESLEMDSDEDDSEELEEDDGHGAEQAAAFPTEDSRTSKESMSEADRAQKMDGESEEEQESVDTGEEEEGGDESDLSSESSIKKKFLKRKGKTDSPWIKPARKRRRRSRKKPSGALGSESYKSSAGSAEQTAPGDSTGYMEVSLDSLDLRVKGILSSQAEGLANGPDVLETDGLQEVPLCSCRMETPKSREITTLANNQCMATESVDHELGRCTNSVVKYELMRPSNKAPLLVLCEDHRGRMVKHQCCPGCGYFCTAGNFMECQPESSISHRFHKDCASRVNNASYCPHCGEESSKAKEVTIAKADTTSTVTPVPGQEKGSALEGRADTTTGSAAGPPLSEDDKLQGAASHVPEGFDPTGPAGLGRPTPGLSQGPGKETLESALIALDSEKPKKLRFHPKQLYFSARQGELQKVLLMLVDGIDPNFKMEHQNKRSPLHAAAEAGHVDICHMLVQAGANIDTCSEDQRTPLMEAAENNHLEAVKYLIKAGALVDPKDAEGSTCLHLAAKKGHYEVVQYLLSNGQMDVNCQDDGGWTPMIWATEYKHVDLVKLLLSKGSDINIRDNEENICLHWAAFSGCVDIAEILLAAKCDLHAVNIHGDSPLHIAARENRYDCVVLFLSRDSDVTLKNKEGETPLQCASLNSQVWSALQMSKALQDSAPDRPSPVERIVSRDIARGYERIPIPCVNAVDSEPCPSNYKYVSQNCVTSPMNIDRNITHLQYCVCIDDCSSSNCMCGQLSMRCWYDKDGRLLPEFNMAEPPLIFECNHACSCWRNCRNRVVQNGLRARLQLYRTRDMGWGVRSLQDIPPGTFVCEYVGELISDSEADVREEDSYLFDLDNKDGEVYCIDARFYGNVSRFINHHCEPNLVPVRVFMAHQDLRFPRIAFFSTRLIEAGEQLGFDYGERFWDIKGKLFSCRCGSPKCRHSSAALAQRQASAAQEAQEDGLPDTSSAAAADPL | failed
14 | MPKNDLLLRSLRGEPIGRFPVWLMRQAGRYMPEYRKIRNRVKNFLELCKNVDLATEISLLPLKILGVDAIIIFSDILVPLEPLGVKVEFVEGEGPKLSWSGKVSDLKKYDPSQNAYVYEIIKRVKEAQDEVPVIGFAGAPFTLLSYLIEGGASKDFKSTKLFMWENPKEYKRLMDILTETVLAYLKEQIKAGADVVQIFDSWVNNLSLEDYGEYVYPYVNYLISELKDFSDTPVIYFFRGSSSFIDLAVDYRADALSVDWSVDIPELFKIYDKGFQGNLEPAVLYASEEVIEEKTLGLLRRIPVKTRYVFNLGHGLAPDMELEKVKYLVDLVKSFPLT | not failed
15 | MKIATTSSAFDLLPKDQKYKTKRVSYNDFSDLSFLPVVNPKIKRQKKTLEEEVDSTSKAKSSRTSLTKSVTTTTKLTKPEETITASSKECLQETKTNKKPDLRDLIAKAQEKIQNKREINHRREYITRQRIAARLALNQMVATVSFDDHLNYHREMEQRGYTFIQDQVDNLNMFSLWSRSDYNGITNSVLETSNTTMRSDEDSSRKKQQIIKKKSNTFPTDVKEH | failed
